{"source": "patent US20150246140A1", "about": "“COMPOSITIONS AND METHODS FOR MODULATING SLEEP AND WAKEFULNESS” (California Institute of Technology, priority 2014, published 2015)", "origin": "cited, not measured here", "key": {"[1]": {"molecular_target": "T1, NPR-22 (Caenorhabditis elegans, UniProt Q59E83)", "T1 sequence (Q59E83 1-434)": "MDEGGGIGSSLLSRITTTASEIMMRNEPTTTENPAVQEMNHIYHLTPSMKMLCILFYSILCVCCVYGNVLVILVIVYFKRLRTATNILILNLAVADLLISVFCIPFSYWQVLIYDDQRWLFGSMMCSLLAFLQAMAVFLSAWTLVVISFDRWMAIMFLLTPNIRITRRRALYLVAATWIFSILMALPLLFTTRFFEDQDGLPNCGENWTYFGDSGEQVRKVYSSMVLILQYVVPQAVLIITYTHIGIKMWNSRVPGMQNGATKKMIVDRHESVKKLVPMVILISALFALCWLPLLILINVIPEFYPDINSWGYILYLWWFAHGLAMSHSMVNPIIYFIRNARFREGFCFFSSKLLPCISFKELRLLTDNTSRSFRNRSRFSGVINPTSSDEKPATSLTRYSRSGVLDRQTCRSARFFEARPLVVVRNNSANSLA", "conditions": "FLP-13 peptides P1-P9, FIG. 6 legend"}, "[2]": {"tested_on": "A. suum muscle strips", "conditions": "FLP-13 peptides P1-P9, FIG. 6 legend"}}}
{"sequence": "AADGAPLIRF [C. elegans RFamide peptide of gene flp-13; P2 and P4 are repeated copies]", "values": [{"measurement": "activate calcium response via NPR-22 using the fluorescence assay", "setting": "[1]", "value": "can activate calcium response"}, {"measurement": "effect on A. suum muscle strips", "setting": "[2]", "value": "inhibitory effects"}]}
{"sequence": "ASSAPLIRF [C. elegans RFamide peptide of gene flp-13]", "values": [{"measurement": "activate calcium response via NPR-22 using the fluorescence assay", "setting": "[1]", "value": "can activate calcium response"}]}
{"sequence": "SPSAVPLIRF [C. elegans RFamide peptide of gene flp-13]", "values": [{"measurement": "activate calcium response via NPR-22 using the fluorescence assay", "setting": "[1]", "value": "can activate calcium response"}, {"measurement": "effect on A. suum muscle strips", "setting": "[2]", "value": "excitatory effect"}]}
{"sequence": "APEASPLIRF [C. elegans RFamide peptide of gene flp-13; P3 and P5 are repeated copies]", "values": [{"measurement": "effect on A. suum muscle strips", "setting": "[2]", "value": "inhibitory effects"}]}
{"sequence": "SAAAPLIRF [C. elegans RFamide peptide of gene flp-13]", "values": [{"measurement": "activate calcium response via NPR-22 using the fluorescence assay", "setting": "[1]", "value": "can activate calcium response"}]}
{"sequence": "ASPSAPLIRF [C. elegans RFamide peptide of gene flp-13]", "values": [{"measurement": "activate calcium response via NPR-22 using the fluorescence assay", "setting": "[1]", "value": "can activate calcium response"}]}
